Sequences and labels used below:
B1: Advillin, residues 785 to 819; numbered along this chain, O75366 (parent)
chain: LSEQDFVSVFGITRGQFAALPGWKQLQMKKEKGLF

± gives the uncertainty stated by the source.

Variants of B1 are the subject of this series. Put plainly: abundance fitness (aPCA) (normalised: wild type 0, dead -1); higher = more abundant; growth selection in yeast, the domain comes from the species named. The conditions noted are these: Homo sapiens.
Consider LSEQDFVSVFGITRGQFAALPGWIQLQMKKEKGLF [K24I], for which the abundance fitness is -0.148 ± 0.14. Turning to LSEQDFVSVFGITRGQFAALPGWYQLQMKKEKGLF [K24Y], the abundance fitness is -0.805 ± 0.49.

For the variant LSEQDFVSVFGITRGQFAALPGWEQLQMKKEKGLF [K24E], the abundance fitness is -0.142 ± 0.097. The value for LSEQDFVSVFGITRGQFAALPGWMQLQMKKEKGLF [K24M] was -0.098 ± 0.12. Under LSEQDFVSVFGITRGQFAALPGWTQLQMKKEKGLF [K24T] stands -0.446 ± 0.3; under LSEQDFVSVFGITRGQFAALPGWFQLQMKKEKGLF [K24F], -0.403 ± 0.16; under LSEQDFVSVFGITRGQFAALPGWRQLQMKKEKGLF [K24R], -0.159 ± 0.066. Under LSEQDFVSVFGITRGQFAALPGWCQLQMKKEKGLF [K24C] stands -0.342 ± 0.11.

Consider LSEQDFVSVFGITRGQFAALPGWSQLQMKKEKGLF [K24S], for which the abundance fitness is -0.304 ± 0.097. The value for LSEQDFVSVFGITRGQFAALPGWNQLQMKKEKGLF [K24N] was -0.433 ± 0.23; that for LSEQDFVSVFGITRGQFAALPGWHQLQMKKEKGLF [K24H] was -0.61 ± 0.34; that for LSEQDFVSVFGITRGQFAALPGWQQLQMKKEKGLF [K24Q] was -0.072 ± 0.086.

In the case of LSEQDFVSVFGITRGQFAALPGWDQLQMKKEKGLF [K24D], the abundance fitness was -0.143 ± 0.1. Regarding LSEQDFVSVFGITRGQFAALPGWGQLQMKKEKGLF [K24G], the abundance fitness was -0.488 ± 0.089. In the case of LSEQDFVSVFGITRGQFAALPGWVQLQMKKEKGLF [K24V], the abundance fitness was -0.279 ± 0.12. Under LSEQDFVSVFGITRGQFAALPGWPQLQMKKEKGLF [K24P] stands -0.475 ± 0.12; under LSEQDFVSVFGITRGQFAALPGWKWLQMKKEKGLF [Q25W], -1.4 ± 0.15; under LSEQDFVSVFGITRGQFAALPGWKALQMKKEKGLF [Q25A], -0.525 ± 0.066.

Consider LSEQDFVSVFGITRGQFAALPGWKCLQMKKEKGLF [Q25C], for which the abundance fitness is -0.846 ± 0.17. The value for LSEQDFVSVFGITRGQFAALPGWKVLQMKKEKGLF [Q25V] was -0.604 ± 0.11. The value for LSEQDFVSVFGITRGQFAALPGWKMLQMKKEKGLF [Q25M] was -0.507 ± 0.12; that for LSEQDFVSVFGITRGQFAALPGWKKLQMKKEKGLF [Q25K] was -0.31 ± 0.081; that for LSEQDFVSVFGITRGQFAALPGWKSLQMKKEKGLF [Q25S] was -0.735 ± 0.14. The value for LSEQDFVSVFGITRGQFAALPGWKRLQMKKEKGLF [Q25R] was -0.187 ± 0.07. In the case of LSEQDFVSVFGITRGQFAALPGWKLLQMKKEKGLF [Q25L], the abundance fitness is -0.456 ± 0.074. With LSEQDFVSVFGITRGQFAALPGWKGLQMKKEKGLF [Q25G], the abundance fitness is -0.568 ± 0.073.

For the variant LSEQDFVSVFGITRGQFAALPGWKELQMKKEKGLF [Q25E], the abundance fitness was -0.593 ± 0.069. Under LSEQDFVSVFGITRGQFAALPGWKTLQMKKEKGLF [Q25T] stands -0.405 ± 0.15.

Take LSEQDFVSVFGITRGQFAALPGWKNLQMKKEKGLF [Q25N]: the abundance fitness is -0.407 ± 0.12. Under LSEQDFVSVFGITRGQFAALPGWKQLLMKKEKGLF [Q27L] stands -0.297 ± 0.061; under LSEQDFVSVFGITRGQFAALPGWKQLKMKKEKGLF [Q27K], -0.064 ± 0.063; under LSEQDFVSVFGITRGQFAALPGWKQLRMKKEKGLF [Q27R], -0.186 ± 0.052.

As to LSEQDFVSVFGITRGQFAALPGWKQLMMKKEKGLF [Q27M], the abundance fitness was -0.293 ± 0.11. The value for LSEQDFVSVFGITRGQFAALPGWKQLVMKKEKGLF [Q27V] was -0.139 ± 0.058. The value for LSEQDFVSVFGITRGQFAALPGWKQLCMKKEKGLF [Q27C] was -0.432 ± 0.084; that for LSEQDFVSVFGITRGQFAALPGWKQLHMKKEKGLF [Q27H] was 0.108 ± 0.26. On to LSEQDFVSVFGITRGQFAALPGWKQLWMKKEKGLF [Q27W], for which the abundance fitness was -0.37 ± 0.066.

For the variant LSEQDFVSVFGITRGQFAALPGWKQLTMKKEKGLF [Q27T], the abundance fitness is -0.459 ± 0.07. Under LSEQDFVSVFGITRGQFAALPGWKQLDMKKEKGLF [Q27D] stands -0.3 ± 0.21; under LSEQDFVSVFGITRGQFAALPGWKQLGMKKEKGLF [Q27G], -0.333 ± 0.061; under LSEQDFVSVFGITRGQFAALPGWKQLSMKKEKGLF [Q27S], -0.183 ± 0.063. With LSEQDFVSVFGITRGQFAALPGWKQLEMKKEKGLF [Q27E], the abundance fitness worked out at 0.098 ± 0.075. The value for LSEQDFVSVFGITRGQFAALPGWKQLAMKKEKGLF [Q27A] was -0.125 ± 0.061.

For LSEQDFVSVFGITRGQFAALPGWKQLFMKKEKGLF [Q27F], the abundance fitness is -0.416 ± 0.3. For LSEQDFVSVFGITRGQFAALPGWKQLPMKKEKGLF [Q27P], the abundance fitness was -0.589 ± 0.083. Turning to LSEQDFVSVFGITRGQFAALKGWKQLQMKKEKGLF [P21K], the abundance fitness was -0.413 ± 0.095. The value for LSEQDFVSVFGITRGQFAALSGWKQLQMKKEKGLF [P21S] was -0.225 ± 0.079; that for LSEQDFVSVFGITRGQFAALMGWKQLQMKKEKGLF [P21M] was -0.64 ± 0.16. The value for LSEQDFVSVFGITRGQFAALIGWKQLQMKKEKGLF [P21I] was -0.536 ± 0.15; that for LSEQDFVSVFGITRGQFAALEGWKQLQMKKEKGLF [P21E] was -0.246 ± 0.057; that for LSEQDFVSVFGITRGQFAALFGWKQLQMKKEKGLF [P21F] was -0.696 ± 0.21. Under LSEQDFVSVFGITRGQFAALDGWKQLQMKKEKGLF [P21D] stands -0.54 ± 0.11. With LSEQDFVSVFGITRGQFAALRGWKQLQMKKEKGLF [P21R], the abundance fitness was -0.614 ± 0.056. The value for LSEQDFVSVFGITRGQFAALHGWKQLQMKKEKGLF [P21H] was -0.534 ± 0.085.

As to LSEQDFVSVFGITRGQFAALNGWKQLQMKKEKGLF [P21N], the abundance fitness is -0.51 ± 0.23.

In the case of LSEQDFVSVFGITRGQFAALLGWKQLQMKKEKGLF [P21L], the abundance fitness was -0.509 ± 0.064. For LSEQDFVSVFGITRGQFAALGGWKQLQMKKEKGLF [P21G], the abundance fitness was -0.32 ± 0.067. Turning to LSEQDFVSVFGITRGQFAALYGWKQLQMKKEKGLF [P21Y], the abundance fitness is -0.668 ± 0.11.

With LSEQDFVSVFGITRGQFAALCGWKQLQMKKEKGLF [P21C], the abundance fitness was -0.436 ± 0.11. Regarding LSEQDFVSVFGITRGQFAALQGWKQLQMKKEKGLF [P21Q], the abundance fitness is -0.271 ± 0.17. Take LSEQDFVSVFGITRGQFAALWGWKQLQMKKEKGLF [P21W]: the abundance fitness is -0.617 ± 0.12. For LSEQDFVSVFGITRGQFAALAGWKQLQMKKEKGLF [P21A], the abundance fitness is -0.414 ± 0.061. The value for LSEQDFVSVFGITRGQFAAYPGWKQLQMKKEKGLF [L20Y] was -0.106 ± 0.19. The value for LSEQDFVSVFGITRGQFAAVPGWKQLQMKKEKGLF [L20V] was -0.753 ± 0.11; that for LSEQDFVSVFGITRGQFAAWPGWKQLQMKKEKGLF [L20W] was -0.91 ± 0.16. The value for LSEQDFVSVFGITRGQFAALPGWKQSQMKKEKGLF [L26S] was 0.069 ± 0.07. As for LSEQDFVSVFGITRGQFAALPGWKQKQMKKEKGLF [L26K], the abundance fitness was 0.068 ± 0.089.

On to LSEQDFVSVFGITRGQFAALPGWKQRQMKKEKGLF [L26R], for which the abundance fitness was -0.033 ± 0.058. The value for LSEQDFVSVFGITRGQFAALPGWKQTQMKKEKGLF [L26T] was -0.075 ± 0.064. Turning to LSEQDFVSVFGITRGQFAALPGWKQPQMKKEKGLF [L26P], the abundance fitness is -0.914 ± 0.18.
